Results taken from patent US20220169732A1 (BIOND BIOLOGICS, published 2022).
Where no end group is shown, it is not given here.

Molecular target: T1, BSA conjugated CD28 stalk region dimeric peptide (also: dimer through the cysteine, BSA conjugated via C-terminal Lys by hydrazide chemistry)
T1 peptide: GKHLCPSPLFPGPSKPK
Experiment: ELISA

B1: antibody M9 (antibody, V domains shown)
VH: DVKLVESGGGLVKLGGSLKLSCVASGFTFSSYYMSWVRQTPEKRLEWVATISDGGDNTYYAGTVTGRFTISRDFAKNTLYLQMNSLTSEDTAVYYCARIHWPYYFDSWGQGTTLTVSS
VL: QFVLSQSPAILSASPGEMLTMTCRASSSVSYMNWYQQKPGSSPKPWIYATSDLASGVPARFSGSGSGTSYSLTISRVEAEDAATYYCQQWSSHPPTFGGGTKLEIR
notes: Full-size mouse antibody raised in CD1 mice against the dimeric stalk peptide; detected with anti mouse IgG; also called clone M9; anti-cleavage antibody M9
- IC50: 9 ng/mL
